For 3 substances, Potency Relative to ShK (WB, IL2), WB (IFNg) IC50 and WB (IL-2) IC50 results are on record in patent publication US20130189283A1.

For this test, the target named is Kv1.3 voltage-gated potassium channel on T cells in human whole blood (human) (UniProt P22001). Briefly: cell-based or functional assay.
Kv1.3 voltage-gated potassium channel on T cells in human whole blood (human), sequence (P22001 whole entry, the tested form may be a part): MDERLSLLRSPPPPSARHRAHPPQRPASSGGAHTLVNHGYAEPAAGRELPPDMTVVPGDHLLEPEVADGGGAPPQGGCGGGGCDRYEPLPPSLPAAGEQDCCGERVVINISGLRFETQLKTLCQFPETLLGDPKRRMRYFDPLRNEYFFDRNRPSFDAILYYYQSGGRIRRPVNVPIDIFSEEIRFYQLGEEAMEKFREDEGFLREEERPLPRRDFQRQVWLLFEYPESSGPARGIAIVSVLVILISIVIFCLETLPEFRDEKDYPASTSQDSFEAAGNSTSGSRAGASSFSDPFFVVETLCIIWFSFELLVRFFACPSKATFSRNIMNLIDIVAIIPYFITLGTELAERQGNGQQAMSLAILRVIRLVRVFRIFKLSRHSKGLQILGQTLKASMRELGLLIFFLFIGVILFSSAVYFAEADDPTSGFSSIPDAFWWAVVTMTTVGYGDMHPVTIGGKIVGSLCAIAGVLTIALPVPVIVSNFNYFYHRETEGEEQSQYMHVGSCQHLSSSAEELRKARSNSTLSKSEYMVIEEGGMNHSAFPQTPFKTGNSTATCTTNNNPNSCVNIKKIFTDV
For the substance “Monovalent Fc/Fc-L10-ShK[2-35] heterodimer (Fc fusion)”, the Potency Relative to ShK (WB, IL2) came to 32.1 fold; the WB (IFNg) IC50 was found to be 5.2 nM; the WB (IL-2) IC50 was 2.15 nM.
On the same counts, the results for 20 kDa-PEG-ShK (peptide) are 5.67 fold, 0.84 nM and 0.38 nM.
ShK(1-35) (peptide) had a Potency Relative to ShK (WB, IL2) of 1 fold; a WB (IFNg) IC50 of 0.078 nM; a WB (IL-2) IC50 of 0.067 nM.
